Molecular target: HLA-DRB1*0404 (human)
Test: radioligand binding; solid-state competitive-binding assay (as in Southwood et al, 1998): the peptide blocks the binding of a radio-labeled reference peptide to purified HLA-DR4 complexes; IC50 in nM
Conditions: both partners purified

| Binder | IC50 |
| --- | --- |
| EGDAFELTVSCQGGLPK (gp100/pmel17 melanoma-associated antigen, residues 506-522; also called gp100506-522; g506; source: synthetic peptide (FMOC chemistry, UPCI Peptide Synthesis Facility), >90% pure) [gp100/pmel17 506-522] | 3.55 µM |
| VSGLSIGTGRAMLGTHTMEVTVY (gp100/pmel17 melanoma-associated antigen, residues 167-189; also called gp100167-179; g167; source: synthetic peptide (FMOC chemistry, UPCI Peptide Synthesis Facility), >90% pure) [gp100/pmel17 167-189] | 0.372 µM |
| LCQPVLPSPACQLVLHQILKGG (gp100/pmel17 melanoma-associated antigen, residues 540-561; also called gp100540-561; g540; source: synthetic peptide (FMOC chemistry, UPCI Peptide Synthesis Facility), >90% pure) [gp100/pmel17 540-561] | 0.614 µM |
| KRCLLHLAVIGALLAVGATKV (gp100/pmel17 melanoma-associated antigen, residues 6-26; also called gp1006-26; g6; source: synthetic peptide (FMOC chemistry, UPCI Peptide Synthesis Facility), >90% pure) [gp100/pmel17 6-26] | 0.335 µM |

Molecular target: HLA-DRB1*0401 (human)
Test: as above
Conditions: both partners purified

| Binder | IC50 |
| --- | --- |
| EGDAFELTVSCQGGLPK (gp100/pmel17 melanoma-associated antigen, residues 506-522; also called gp100506-522; g506; source: synthetic peptide (FMOC chemistry, UPCI Peptide Synthesis Facility), >90% pure) [gp100/pmel17 506-522] | 3.21 µM |
| PGPVTAQVVLQAAIPLTSCGSS (gp100/pmel17 melanoma-associated antigen, residues 283-304; also called gp100283-304; g283; source: synthetic peptide (FMOC chemistry, UPCI Peptide Synthesis Facility), >90% pure) [gp100/pmel17 283-304] | 2.89 µM |

Source: publication PMC2363969 (British Journal of Cancer, 2001)
